For test [1], the target named is T1, human PD-1 protein (hPD-1) on cell surface of 293T-PD-1 cells (human, UniProt Q15116 25-287).
T1 construct: Human PD-1 expressed in HEK293T cells, either by lentiviral transduction or by the pCMV6-ENTRY PDCD1 cDNA RC210364; also called PDCD1 (RC210364) in HEK293T cells
Nature of the test: flow cytometry on 293T-PD-1 cells, 4 C for 60 min, secondary APC-anti-Hu IgG Fc; y axis hPD-1%. The protocol: (§1) The cells were then stained with a secondary antibody (APC-anti-Hu IgG Fc for humanized antibodies and FITC-anti-Mouse IgG F(ab′)2 for F02) for 30 minutes (1:50), followed by flow cytometric analysis. The results were analyzed through Prism 7 and Kd values were determined by the program.

For test [2], the target named is T1, human PD-1 protein (hPD-1) on cell …. The test is described as follows: flow cytometry on 293T-PD-1 cells. Here is the method:
as §1
In general terms: A flow cytometer gives signals particle by particle.

Test [3] concerns the target T2, recombinant biotinylated human PD-1 (human, UniProt Q15116 25-170, limits assumed, biotinylated (site not stated)).
T2 construct: also called rhPD-1; recombinant human PD-1 protein
Nature of the test: ELISA, antibody coated, biotinylated rhPD-1 titrated, Sav-HRP detection. The protocol: 5 μg/ml of anti-PD1 antibody in 100 μl coating buffer was coated in the microwells at 4° C. overnight. By following the ELISA procedure, a 5-fold serial dilution of recombinant biotinylated human PD-1 was added to the assay plate pre-coated with anti-PD1 antibodies. The bound human PD-1 protein was then detected with Sav-HRP reagent. The results were analyzed through Prism 7 and Kd values were determined by the program.
For orientation: ELISA stands for enzyme-linked immunosorbent assay.

Test [4] deals with T1, human PD-1 protein (hPD-1) on cell …. The test is described as follows: flow cytometry on 293T-PD-1 cells, 4 C for 60 min, secondary FITC-anti-Mouse IgG F(ab')2; y axis hPD-1%. Here is the method: as §1

The record followed here is patent US20220195047A1 (TCRCURE BIOPHARMA, published 2022).

T1 sequence (Q15116 25-287 limits assumed): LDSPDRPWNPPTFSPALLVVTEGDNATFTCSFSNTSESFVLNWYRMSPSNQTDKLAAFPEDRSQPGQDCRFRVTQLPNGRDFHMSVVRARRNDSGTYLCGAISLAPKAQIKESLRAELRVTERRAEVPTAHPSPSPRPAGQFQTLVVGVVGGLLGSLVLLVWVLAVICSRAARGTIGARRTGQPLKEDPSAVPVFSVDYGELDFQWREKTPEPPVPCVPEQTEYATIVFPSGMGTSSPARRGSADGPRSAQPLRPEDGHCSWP
T2 sequence (Q15116 25-170 limits assumed): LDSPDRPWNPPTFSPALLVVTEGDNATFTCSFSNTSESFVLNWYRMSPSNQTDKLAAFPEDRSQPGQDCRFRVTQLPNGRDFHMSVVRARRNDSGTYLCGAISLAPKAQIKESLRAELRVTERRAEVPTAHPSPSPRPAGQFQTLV

B1: h11 anti-PD-1 antibody (antibody, V domains shown)
VH: QVQLVQSGAEVKKPGASVKVSCKASGYTFTNYYMYWVRQAPGQGLEWIGGINPSNGGTNFNEKFKNKATMTVDKSTSTAYMELSSLRSEDTAVYYCTRRDYNYDGGFDYWGQGTLVTVSS
VL: DIVLTQSPATLSLSPGERATLSCRASKSVSTSGFNYMHWYQQKPGQAPRLLIFLASNLASGVPARFSGSGSGTDFTLTISSLEPEDFAVYYCQHGRELPLTFGQGTKLEI
notes: Humanized antibody derived from F02, detected with anti-human IgG Fc; also called hl 1
For the molecule B1, the “EC50 (read off the curve)” value in test [1] was around 0.07 µg/mL. Further, the values for the Kd in test [2] and in test [3] were 0.55 nM and 0.29 nM, respectively.

B2: Ab5 anti-PD-1 antibody (antibody, V domains shown)
VH: QVQLQQSGAEVKKPGSSVKVSCKASGYTFTNYYLYWVRQAPGQGLEWIGGINPSNGGTNFNEKFRGRVTITADESSTTAYMELSSLRSEDTAFYFCTRRDYNYDGGFDYWGQGTTVTVSS
VL: DIVMTQSPSSLSASVGDRVTITCRASKSVSTSGFNYMHWYQQTPGKAPKLLIYLASNLDSGVPARFSGSGSGTDFTFTISSLQEEDIATYYCFHGRELPLTFGQGTKLQITR
notes: Humanized antibody, detected with anti-human IgG Fc
On to B2, for which the “EC50 (read off the curve)” value in test [1] is around 0.5 µg/mL. The molecule further came in with a dissociation constant Kd in test [2] of 3.69 nM.

B3: Ab8 anti-PD-1 antibody (antibody, V domains shown)
VH: EVQLQESGAEVKKPGSSVKVSCKASGYTFTNYYLYWVRQAPGQGLEWMGGINPSNGGTNFNEKFRGRVTITADESTSTAYMELSSLRSEDTAVYYCARRDYNYDGGFDYWGQGTTVTVSS
VL: DIVMTQSPDSLAVSLGERATINCRASKSVSTSGFNYMHWYQQKPGQPPKLLIYLASNLDSGVPDRFSGSGSGTDFTLTIRPLQAEDVAVYYCQHGRELPLTFGQGTKLEIK
notes: as for B2
As for B3, the “EC50 (read off the curve)” value in test [1] is around 0.1 µg/mL. Also, the Kd in test [2] turned out to be 0.65 nM; in test [3] it was 0.32 nM.

B4: Ab4 anti-PD-1 antibody (antibody, V domains shown)
VH: QVQLQQSGAEVKKPGSSVKVSCKASGYTFTNYYLYWVRQAPGQGLEWIGGINPSNGGTNFNEKFRGRVTITADESSTTAYMELSSLRSEDTAFYFCTRRDYNYDGGFDYWGQGTTVTVSS
VL: DIQMTQSPSSLSASVGDRVTITCRASKSVSTSGFNYMHWYQQTPGKAPKLLIYLASNLDSGVPARFSGSGSGTDFTFTISSLQEEDIATYYCFHGRELPLTFGQGTKLQITR
notes: as for B2
For the molecule B4, the “EC50 (read off the curve)” value in test [1] is around 3 µg/mL. Besides, binding in test [2] was put at a Kd of 41 nM.

B5: Ab2 anti-PD-1 antibody (antibody, V domains shown)
VH: QVQLQQSGAEVKKPGSSVKVSCKASGYTFTNYYLYWVRQAPGQGLEWIGGINPSNGGTNFNEKFRGRVTITADESSTTAYMELSSLRSEDTAFYFCTRRDYNYDGGFDYWGQGTTVTVSS
VL: DIQMTQSPSSLSASVGDRVTITCRASKSVSTSGFNYMHWYQQTPGKAPKLLIYLASNLDSGVPSRFSGSGSGTDFTFTISSLQPEDIATYYCFHGRELPLTFGQGTKLQITR
notes: as for B2
For B5, in test [1], the “EC50 (read off the curve)” value is around 0.4 µg/mL. Binding in test [2] was put at a Kd of 3.24 nM.

B6: Ab7 anti-PD-1 antibody (antibody, V domains shown)
VH: QVQLQQSGAEVKKPGSSVKVSCRASGYTFTNYYLYWVRQAPGQGLEWIGGINPSNGGTNFNEKFRGRVTITADESSTTAYMELSSLRSEDTAFYFCTRRDYNYDGGFDYWGQGTTVTVSS
VL: DIVMTQSPSSLSASVGDRVTITCRASKSVSTSGFNYMHWYQQTPGKAPKLLIYLASNLDSGVPARFSGSGSGTDFTFTISSLQEEDIATYYCFHGRELPLTFGQGTKLQITR
notes: as for B2
Take B6: the “EC50 (read off the curve)” value in test [1] is around 0.3 µg/mL. Besides, the values for the Kd in test [2] and in test [3] were 2.3 nM and 0.68 nM, respectively.

B7: F02 anti-PD-1 antibody (antibody, V domains shown)
VH: QQPGAELVKPGASVKLSCRASGYTFTNYYLYWVKQRPGQGLEWIGGINPSNGGTNFNEKFRGKATLTVDKSSSTAYMQLSSLTSEDSAVYFCTRRDYNYDGGFDYWGQGSTLTVSS
VL: DIVLTQSPASLAVSLGQRATISCRASKSVSTSGFNYMHWYQQKPGQPPKLLIYLASNLDSGVPARFSGSGSGTDFTLNIHPVEEEDAATYYCQHGRELPLTFGAGTKLELRR
notes: Mouse monoclonal antibody from hybridoma clone #11, detected with anti-mouse IgG F(ab')2; Only the variable domains are tied to F02; also called anti-PD-1 antibody from hybridoma clone #11; clone #11
As for B7, in test [4], the half-maximal effective concentration (EC50 (read off the curve)) is around 0.01 µg/mL. In addition, the Kd came out at 0.07 nM in test [2] and 0.14 nM in test [3].

As a reminder, the EC50 (read off the curve) is the concentration giving half of the maximal effect. A higher EC50 (read off the curve) goes with a less potent agent. By Kd is commonly meant the constant that tells how readily two partners part at equilibrium.
